The target in the assay is SARS-CoV-2 Wuhan-Hu-1 receptor binding domain (RBD), Spike (S) protein residues 319-539 (SARS-CoV-2, UniProt P0DTC2). Description: BLI. As to conditions: both partners purified.

B1: C105 (antibody, V domains shown)
VH: QVQLVESGGGLIQPGGSLRLSCAASGFTVSSNYMSWVRQAPGKGLEWVSVIYSGGSTYYADSVKGRFTISRDNSKNTLYLQMNSLRAEDTAVYYCARGEGWELPYDYWGQGTLVTVSS
VL: QSALTQPPSASGSPGQSVTISCTGTSSDVGGYKYVSWYQQHPGKAPKLMIYEVSKRPSGVPDRFSGSKSGNTASLTVSGLQAEDEADYYCSSYEGSNNFVVFGGGTKLTVL
For the molecule B1, the binding result is given as “binds”.

B2: C118 (antibody, V domains shown)
VH: QVQLVESGGGVVQPGRSLRLSCAASGFTFSNYAMHWVRQAPGKGLEWVAVISYDGSNKYYADSVKGRFTISRDNSKNTLYLQMNSLRAEDTAIYYCASGYTGYDYFVRGDYYGLDVWGQGTTVTVSS
VL: QPVLTQSPSASASLGASVKLTCTLSSGHSSYAIAWHQQQPEKGPRYLMKLNTDGSHSKGDGIPDRFSGSSSGAERYLTISSLQSEDEADYYCQTWGTGILVFGGGTKLTVL
For B2, the binding result was “binds”.
